Drawing on paper PMC3081289 (2011), this text covers koff for 1 molecule.

This test concerns the target T1, Vascular Endothelial Growth Factor (VEGF), receptor binding domain, VEGF_(8–109) (human).
T1 chain: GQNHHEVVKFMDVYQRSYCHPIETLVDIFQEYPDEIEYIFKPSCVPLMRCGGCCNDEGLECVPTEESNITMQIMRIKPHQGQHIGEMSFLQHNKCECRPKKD
In words: SPR.

B1: bH1-44 Fab (affinity-improved variant of bH1) (Fab, V domains shown)
VH: EVQLVESGGGLVQPGGSLRLSCAASGFNISGTYIHWVRQAPGKGLEWVARIYPSEGYTRYADSVKGRFTISADTSKNTAYLQMNSLRAEDTAVYYCSRWVGVGFYAMDYWGQGTLVTVSS
VL: DIQMTQSPSSLSASVGDRVTITCRASQNIAKTISGYVAWYQQKPGKAPKLLIYWGSFLYSGVPSRFSGSGSGTDFTLTISSLQPEDFATYYCQQHYSSPPTFGQGTKVEIK
A word on the koff: it is a measure of how fast the partners let go of each other. Molecule B1 showed a koff of 0.0014 s⁻¹.
